{"source": "paper PMC5444726", "about": "“A CD44-specific peptide, RP-1, exhibits capacities of assisting diagnosis and predicting prognosis of gastric cancer” (Oncotarget, 2017)", "key": {"[1]": {"tested_on": "CD44 on MKN-28-CD44-ox cells", "test": "Confocal immunofluorescence of peptide binding to CD44-overexpressing MKN-28 cells", "type": "cell-based, human", "conditions": "100 μM Alexa Fluor 594 labeled peptide, 20 min, fixed cells, confocal microscopy", "protocol": "Plasmids containing cDNA of CD44 protein were synthesized by GENECHEM, Shanghai, China. Using Pfu polymerase and two oligonucleotides ([…] and […]), the CD44 cDNA was cloned into Xhol and ECOR1 sites of GV146 (GENECHEM, Shanghai, China) by recombinant PCR. Then, CD44-negative MNK-28 cells were transfected with the plasmid with Lipofectamine 2000 reagent (Invitrogen, California, USA), and then the efficiency of CD44 expression in MKN-28 cells was tested. Finally, two cell lines were generated as following: MKN-28-con with no CD44 expression and MKN-28-CD44-ox with CD44 overexpression labeled with enhanced green fluorescent protein (EGFP).\nFor the preparation of confocal laser microscopy, the transfected MNK-28 cancer cells were washed with phosphate buffer saline (PBS) three times, then fixed with 4% paraformaldehyde at ambient temperature for 30 min, and blocked with 5% BSA (w/v) in PBS at 37°C for 1 h. The blocked cells were sequentially incubated with 100 μM RP-1 or WYP labeled with Alexa Fluor 594 for 20 min, and counterstained with 4,6-diamidino-2-phenylindole (DAPI). […] For the evaluation of the correlation of fluorescent intensities between CD44-EGFP and RP-1-Fluor 594, a semi-quantitative analysis was performed with ImageJ 1.48v software (National Institutes of Health, Maryland, USA) by randomly selecting and observing 10 fields of vision. […]"}, "[2]": {"tested_on": "SGC-7901 tumor tissue", "test": "Fluorescence microscopy of frozen xenograft sections after injection", "type": "in vivo, athymic nude mice", "conditions": "3 h after i.v. injection of peptide", "protocol": "Once fluorescence signal reached its peak at the site of tumor, subcutaneous tumor tissues were harvested for further experiment. After shock-frozen with liquid nitrogen, tumor tissues were cut into 5 μm sections and fixed in 4% paraformaldehyde at ambient temperature for 30 min. The coverslips were mounted with glycerol–gelatin containing anti-fading buffer (Bioworld, Minnesota, USA). Finally, the fluorescence images of frozen sections were captured with a fluorescent microscope (Nikon-Eclipse, Tokyo, Japan)"}, "[3]": {"tested_on": "SGC-7901 cells", "test": "Binding affinity to gastric cancer cells (fluorescence saturation)", "set-up": "species or system human", "conditions": "FITC-labeled peptide, 0 to 2.5 μM at 0.25 μM intervals, serum-free RPMI 1640, ambient temperature, 15 min, microplate reader; least squares fit, R^2 = 0.98; read-out: equilibrium dissociation constant (Kd)", "protocol": "5 × 10^5 SGC-7901 cells were inoculated into each well of a multi-well plate 24h before measurement. Both FITC- RP-1 and FITC-WYP peptide were serially diluted with RPMI 1640 culture medium containing no serum at concentrations ranged from 0 to 2.5 μM at 0.25 μM intervals, and incubated with SGC-7901 cells at ambient temperature for 15 min [40]. After washing twice with pre-cold PBS/0.2% Tween-20 solution, the unbound peptide was rinsed off, and cells were subsequently fixed in 4% paraformaldehyde at ambient temperature for 20 min. […] The equilibrium dissociation constant (Kd) was calculated using a least squares fit of the data with Origin 8.0 software (OriginLab, Massachusetts, USA). I was calculated using the Michaelis-Menten equation I = Imax([X])/(Kd+[X]), in which Imax was the maximum fluorescent intensity corresponding to peptide binding at saturation, which was calculated from the plots; I was the fluorescent intensity measured above; [X] was the concentration of total peptides and estimated to be the concentration of unbound peptide."}, "[4]": {"tested_on": "MKN-28 cells", "type": "cell-based, human", "conditions": "200 µM"}, "[5]": {"tested_on": "SGC-7901 cells", "type": "cell-based, human", "conditions": "200 µM"}, "[6]": {"tested_on": "BGC-823 cells", "type": "cell-based, human", "conditions": "200 µM"}, "[7]": {"tested_on": "human gastric epithelial cell line GES-1", "type": "cell-based", "conditions": "200 µM"}, "[8]": {"tested_on": "nude mice", "test": "In vivo toxicity in nude mice (body weight, H&E staining)", "conditions": "1 mg/kg i.v., one week", "method": "All animal procedures were approved by the Ethics Committee of Xi’an Jiaotong University and conducted in accordance with the Helsinki Declaration (1975). Athymic nude mice (male, 4–5 weeks old, with a body weight of 20–25 g) were obtained from the Animal Experiment Center of Xi’an Jiaotong University, Xi’an, China. The SGC-7901 tumor xenografts were generated by subcutaneous injection of 5–8 × 10^6 SGC-7901 cells suspended in 200 μL culture medium into the left axilla of mice. The cells were allowed to grow for 2 weeks until tumor volume reached an estimate of 1 cm^3.\nCell Counting Kit-8 (CCK-8, Beyotime, Shanghai, China) assay and animal experiments were performed to evaluate the in vitro and in vivo toxicity of RP-1 peptide, respectively. For CCK-8 assay, 5 × 10^3 MKN-28, SGC-7901, BGC-823 and GES-1 cells in 100 μL culture medium were incubated into each well of a 96-well plate 24 h before peptide was added. All cells were incubated with FITC-RP-1 0.064 to 200 μM. After incubation for 24 h, 48 h or 72 h, 10 μL CCK-8 reagent were added into each well and further incubated for 3 h. Then, the absorbance at 450 nm was measured with a microplate reader (Bio-Rad, Hercules, CA, USA). In animal experiments, FITC-RP-1 or PBS 1 mg/kg was intravenously injected via the tail vein. The body weight of nude mice was measured every day. […]"}}, "note": "Peptide text beside a SMILES is read from it. * marks the point of attachment. FITC = O=C1OC2(c3ccc(O)cc3Oc3cc(O)ccc32)c2ccc(NC(=S)*)cc21"}
{"compound": "WYPLAHWQTSWQ [scrambled control peptide … consisting of the same amino acids as RP-1, reference compound]", "values": [{"measurement": "binding of peptide to CD44 on the cell membrane", "setting": "[1]", "value": "No fluorescent signal was detected"}, {"measurement": "fluorescence on tumor cells in frozen sections", "setting": "[2]", "value": "No fluorescence signal was detected"}]}
{"compound": "CC(C)C[C@H](NC(=O)[C@H](Cc1ccc(O)cc1)NC(=O)[C@H](CO)NC(=O)[C@H](Cc1c[nH]c2ccccc12)NC(=O)[C@@H]1CCCN1C(=O)[C@H](Cc1c[nH]cn1)NC(=O)[C@H](Cc1c[nH]c2ccccc12)NC(=S)Nc1ccc2c(c1)C(=O)OC21c2ccc(O)cc2Oc2cc(O)ccc21)C(=O)N[C@@H](Cc1c[nH]c2ccccc12)C(=O)N[C@H](C(=O)N[C@@H](CCC(N)=O)C(=O)N[C@@H](CCC(N)=O)C(=O)N[C@@H](C)C(=O)O)[C@@H](C)O", "note": "[FITC-RP-1] ({FITC}-WHPWSYLWTQQA-OH; N-terminus and C-terminus assumed)", "values": [{"measurement": "Kd", "setting": "[3]", "value": 0.135, "unit": "µM"}, {"measurement": "cell viability", "setting": "[4]", "value": "more than 85%"}, {"measurement": "cell viability", "setting": "[5]", "value": "> 86", "unit": "%"}, {"measurement": "cell viability", "setting": "[6]", "value": "> 84", "unit": "%"}, {"measurement": "cell viability", "setting": "[7]", "value": "> 91", "unit": "%"}, {"measurement": "toxicity in vivo", "setting": "[8]", "value": "low toxicity in vivo"}]}
